The results in this text go back to US20220155321A1 (published 2022).

In the assay the target is T1, peptide on HLA-A*01:01 (human).
T1 peptide: ASSLPTTMNY
In words: multimer staining.

B1: Reference F (TCR, V domains shown)
Valpha: QKEVEQNSGPLSVPEGAIASLNCTYSDRGSQSFFWYRQYSGKSPELIMFIYSNGDKEDGRFTAQLNKASQYVSLLIRDSQPSDSATYLCAVKDNNARLMFGDGTQLVVKP
Vbeta: KAGVTQTPRYLIKTRGQQVTLSCSPISGHRSVSWYQQTPGQGLQFLFEYFSETQRNKGNFPGRFSGRQFSNSRSEMNVSTLELGDSALYLCASSLSSGLYEQYFGPGTRLTVT
For B1, the binding result was “recognises”.

B2: Reference E (TCR, V domains shown)
Valpha: GQQVMQIPQYQHVQEGEDFTTYCNSSTTLSNIQWYKQRPGGHPVFLIQLVKSGEVKKQKRLTFQFGEAKKNSSLHITATQTTDVGTYFCAGQGNRDDKIIFGKGTRLHILP
Vbeta: DGGITQSPKYLFRKEGQNVTLSCEQNLNHDAMYWYRQDPGQGLRLIYYSQIVNDFQKGDIAEGYSVSREKKESFPLTVTSAQKNPTAFYLCASSLEWGPYEQYFGPGTRLTVT
Regarding B2, the binding result was “recognises”.

B3: Reference C (TCR, V domains shown)
Valpha: RKEVEQDPGPFNVPEGATVAFNCTYSNSASQSFFWYRQDCRKEPKLLMSVYSSGNEDGRFTAQLNRASQYISLLIRDSKLSDSATYLCVVPRMDSSYKLIFGSGTRLLVRP
Vbeta: KAGVTQTPRYLIKTRGQQVTLSCSPISGHRSVSWYQQTPGQGLQFLFEYFSETQRNKGNFPGRFSGRQFSNSRSEMNVSTLELGDSALYLCASSSTGARRSREQYFGPGTRLTVT
On to B3, for which the binding result is recorded as “recognises”.

B4: Reference G (TCR, V domains shown)
Valpha: SQQGEEDPQALSIQEGENATMNCSYKTSINNLQWYRQNSGRGLVHLILIRSNEREKHSGRLRVTLDTSKKSSSLLITASRAADTASYFCATAVFNFGNEKLTFGTGTRLTIIP
Vbeta: KAGVTQTPRYLIKTRGQQVTLSCSPISGHRSVSWYQQTPGQGLQFLFEYFSETQRNKGNFPGRFSGRQFSNSRSEMNVSTLELGDSALYLCASSSMTSGGPWEQYFGPGTRLTVT
In the case of B4, the binding result is “recognises”.

B5: Reference H (TCR, V domains shown)
Valpha: GESVGLHLPTLSVQEGDNSIINCAYSNSASDYFIWYKQESGKGPQFIIDIRSNMDKRQGQRVTVLLNKTVKHLSLQIAATQPGDSAVYFCAENMGGAGKSTFGDGTTLTVKP
Vbeta: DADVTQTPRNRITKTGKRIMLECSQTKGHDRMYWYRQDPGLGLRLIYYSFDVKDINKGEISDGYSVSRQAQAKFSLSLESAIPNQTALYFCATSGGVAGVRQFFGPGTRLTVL
As for B5, the binding result was “recognises”.
